According to patent US20140004106A1:

Tests used:
[1] = molecular target: 28mer peptide of the CXCR5 antigen; test: Antigen-ELISA; standard run with LA_09_004_5
[2] = molecular target: 28mer peptide of the CXCR5 antigen; test: Antigen-ELISA; PBS 155 mM, light stress, 24 h
[3] = molecular target: 28mer peptide of the CXCR5 antigen; test: Antigen-ELISA; Citrate 10 mM pH 7.00, after 1 week at +40°C
[4] = molecular target: 28mer peptide of the CXCR5 antigen; test: Antigen-ELISA; standard run with LA_09_28C, T0
[5] = molecular target: 28mer peptide of the CXCR5 antigen; test: Antigen-ELISA; standard run with LA 09_004_9
[6] = molecular target: 28mer peptide of the CXCR5 antigen; test: Antigen-ELISA; PB 10 mM pH 7.00, T0
[7] = molecular target: 28mer peptide of the CXCR5 antigen; test: Potency (Antigen ELISA); stored -20°C, 9 months
[8] = molecular target: 28mer peptide of the CXCR5 antigen; test: ELISA potency (binding); 100 mg/mL, Lysine (30) + Mannitol (15), 7 days at 40°C
[9] = molecular target: 28mer peptide of the CXCR5 antigen; test: Antigen-ELISA; PB 5 mM pH 7.50, T0
[10] = molecular target: 28mer peptide of the CXCR5 antigen; test: Antigen-ELISA; PBS 155 mM, clear glass type I, 24 h +40°C
[11] = molecular target: 28mer peptide of the CXCR5 antigen; test: ELISA potency (binding); 100 mg/mL, Glycine (20), 7 days at 40°C
[12] = molecular target: 28mer peptide of the CXCR5 antigen; test: Potency (Antigen ELISA); stored +5°C, 18 months
[13] = molecular target: 28mer peptide of the CXCR5 antigen; test: Potency (Antigen ELISA); stored -20°C, 3 months
[14] = molecular target: 28mer peptide of the CXCR5 antigen; test: Antigen-ELISA; PB 5 mM pH 7.50, after 1 week at +40°C
[15] = molecular target: 28mer peptide of the CXCR5 antigen; test: Antigen-ELISA; acetate 10 mM prototype A, repeated values in the 3 weeks -20°C
[16] = molecular target: 28mer peptide of the CXCR5 antigen; test: Antigen-ELISA; standard run with LA_09_004_10
[17] = molecular target: 28mer peptide of the CXCR5 antigen; test: Antigen-ELISA; acetate 10 mM prototype B, T0
[18] = molecular target: 28mer peptide of the CXCR5 antigen; test: Antigen-ELISA; PB 5 mM pH 7.00, after mechanical stress 350 rpm 2.5 h
[19] = molecular target: 28mer peptide of the CXCR5 antigen; test: Antigen-ELISA; PB 10 mM pH 7.50, T0
[20] = molecular target: 28mer peptide of the CXCR5 antigen; test: Antigen-ELISA; PBS 155 mM, clear glass type I as T0, 24 h
[21] = molecular target: 28mer peptide of the CXCR5 antigen; test: Potency (Antigen ELISA); stored +5°C, initial
[22] = molecular target: 28mer peptide of the CXCR5 antigen; test: ELISA potency (binding); 100 mg/mL, Glycine (20) + NaCl (2), T zero
[23] = molecular target: 28mer peptide of the CXCR5 antigen; test: Antigen-ELISA; citrate 10 mM prototype B, T0
[24] = molecular target: 28mer peptide of the CXCR5 antigen; test: Antigen-ELISA; Citrate 10 mM pH 6.50, after mechanical stress 350 rpm 2.5 h
[25] = molecular target: 28mer peptide of the CXCR5 antigen; test: Antigen-ELISA; PB 10 mM pH 7.50, after mechanical stress 350 rpm 2.5 h
[26] = molecular target: 28mer peptide of the CXCR5 antigen; test: Antigen-ELISA; Succinate 10 mM pH 6.00, T0
[27] = molecular target: 28mer peptide of the CXCR5 antigen; test: Antigen-ELISA; Citrate 10 mM pH 5.00, T0
[28] = molecular target: 28mer peptide of the CXCR5 antigen; test: ELISA potency (binding); 100 mg/mL, Sucrose (60) + NaCl (2), T zero
[29] = molecular target: 28mer peptide of the CXCR5 antigen; test: Antigen-ELISA; PBS 155 mM, amber glass type II, 24 h +40°C
[30] = molecular target: 28mer peptide of the CXCR5 antigen; test: Antigen-ELISA; PB 10 mM pH 7.00, after mechanical stress 350 rpm 2.5 h
[31] = molecular target: 28mer peptide of the CXCR5 antigen; test: Antigen-ELISA; Succinate 10 mM pH 5.00, T0
[32] = molecular target: 28mer peptide of the CXCR5 antigen; test: Potency (Antigen ELISA); stored +25°C, 6 months
[33] = molecular target: 28mer peptide of the CXCR5 antigen; test: Antigen-ELISA; PB 5 mM pH 6.50, after mechanical stress 350 rpm 2.5 h
[34] = molecular target: 28mer peptide of the CXCR5 antigen; test: Antigen-ELISA; Acetate 10 mM pH 5.50, T0
[35] = molecular target: 28mer peptide of the CXCR5 antigen; test: Antigen-ELISA; standard run with LA_09_28A, T0
[36] = molecular target: 28mer peptide of the CXCR5 antigen; test: ELISA potency (binding); 100 mg/mL, Sucrose (60) + Mannitol (15), T zero
[37] = molecular target: 28mer peptide of the CXCR5 antigen; test: Antigen-ELISA; standard run with LA_09_27B, T0
[38] = molecular target: 28mer peptide of the CXCR5 antigen; test: Antigen-ELISA; PBS 155 mM pH 7.00, after 1 week at +40°C
[39] = molecular target: 28mer peptide of the CXCR5 antigen; test: Antigen-ELISA; standard run with LA_09_28B, T0
[40] = molecular target: 28mer peptide of the CXCR5 antigen; test: Antigen-ELISA; standard run with LA_09_004_1
[41] = molecular target: 28mer peptide of the CXCR5 antigen; test: Potency (Antigen ELISA); stored +5°C, 1 month
[42] = molecular target: 28mer peptide of the CXCR5 antigen; test: Antigen-ELISA; TRIS 10 mM pH 8.5, T0
[43] = molecular target: 28mer peptide of the CXCR5 antigen; test: Antigen-ELISA; citrate 10 mM prototype A, T0
[44] = molecular target: 28mer peptide of the CXCR5 antigen; test: Potency (Antigen ELISA); stored +25°C, 3 months

EC50 % [1]: 100% | EC50 % [2]: 72.3% | EC50 % [3]: 111% | EC50 % [4]: 100% | EC50 % [5]: 100% | EC50 % [6]: 145% | EC50 value (in comparison to reference) [7]: 101% | rel. potency [%] [8]: 297% | EC50 % [9]: 176% | EC50 % [10]: 131% | rel. potency [%] [11]: 180% | EC50 value (in comparison to reference) [12]: 119% | EC50 value (in comparison to reference) [13]: 84% | EC50 % [14]: 141% | EC50 % [15]: 112% | EC50 % [16]: 100% | EC50 % [17]: 112% | EC50 % [18]: 110% | EC50 % [19]: 117% | EC50 % [20]: 62.3% | EC50 value (in comparison to reference) [21]: 75% | rel. potency [%] [22]: 174% | EC50 % [23]: 104% | EC50 % [24]: 41% | EC50 % [25]: 60.9% | EC50 % [26]: 112% | EC50 % [27]: 79% | rel. potency [%] [28]: 165% | EC50 % [29]: 90.1% | EC50 % [30]: 61.4% | EC50 % [31]: 124% | EC50 value (in comparison to reference) [32]: 104% | EC50 % [33]: 150% | EC50 % [34]: 180% | EC50 % [35]: 100% | rel. potency [%] [36]: 205% | EC50 % [37]: 100% | EC50 % [38]: 97% | EC50 % [39]: 100% | EC50 % [40]: 100% | EC50 value (in comparison to reference) [41]: 105% | EC50 % [42]: 118% | EC50 % [43]: 112% | EC50 value (in comparison to reference) [44]: 96%
B1: Lead CXCR5 Antibody (humanized IgG4 anti-CXCR5 antibody) (antibody, V domains shown)
VH: QVQLKESGPGLVAPSESLSITCTVSGFSLIDYGVNWIRQPPGKGLEWLGVIWGDGTTYYNPSLKSRLSISKDNSKSQVFLKVTSLTTDDTAMYYCARIVYWGQGTLVTVSA
VL: DIVMTQAAPSVAVTPGASVSISCRSSKSLLHSSGKTYLYWFLQRPGQSPQLLIYRLSSLASGVPDRFSGSGSGTAFTLRISRVEAEDVGVYYCMQHLEYPYTFGGGTKLEIKR
